{"source": "paper PMC9482650", "about": "“Quantitative fragmentomics allow affinity mapping of interactomes” (Nature Communications, 2022)", "assay_in_all_cases": "holdup assay", "set-up_in_all_cases": "key: below the threshold = too weak to quantify, mostly under pKd 3.1 to 4", "conditions_in_all_cases": "plain residues with an end cap or a label only (N-terminal biotin on a linker: ado-ado)", "key": {"NHERF4_1, Q86UT5-2": {"target": "NHERF4_1, Q86UT5-2", "sequence (Q86UT5 other isoform, or with tags, fused parts or gaps)": "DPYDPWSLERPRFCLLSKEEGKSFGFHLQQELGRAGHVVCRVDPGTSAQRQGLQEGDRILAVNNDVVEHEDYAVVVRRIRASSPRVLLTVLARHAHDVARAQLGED"}, "PTPN13_1, Q12923": {"target": "T1, PTPN13_1, Q12923", "T1 sequence (Q12923 1088-1188, limits assumed, looked up)": "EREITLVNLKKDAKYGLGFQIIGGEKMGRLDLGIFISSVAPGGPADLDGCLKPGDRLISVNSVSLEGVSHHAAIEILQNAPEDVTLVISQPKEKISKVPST"}, "DFNB31_1, Q9P202": {"target": "T2, DFNB31_1, Q9P202", "T2 sequence (Q9P202 135-233, limits assumed, looked up)": "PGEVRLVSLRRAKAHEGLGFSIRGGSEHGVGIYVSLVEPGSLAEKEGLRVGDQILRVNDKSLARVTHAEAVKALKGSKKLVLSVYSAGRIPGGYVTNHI"}, "GRID2IP_2, A4D2P6": {"target": "GRID2IP_2, A4D2P6", "sequence (A4D2P6 272-370)": "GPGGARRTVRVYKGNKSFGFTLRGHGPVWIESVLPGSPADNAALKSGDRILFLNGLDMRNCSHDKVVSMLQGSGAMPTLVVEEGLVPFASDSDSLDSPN"}, "SIPA1L2, Q9P2F8": {"target": "T3, SIPA1L2, Q9P2F8", "T3 sequence (Q9P2F8 945-1036, limits assumed, looked up)": "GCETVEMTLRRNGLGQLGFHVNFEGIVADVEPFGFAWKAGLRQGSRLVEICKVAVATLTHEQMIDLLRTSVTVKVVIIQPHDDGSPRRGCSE"}, "LDB3, O75112": {"target": "LDB3, O75112", "sequence (O75112 1-94)": "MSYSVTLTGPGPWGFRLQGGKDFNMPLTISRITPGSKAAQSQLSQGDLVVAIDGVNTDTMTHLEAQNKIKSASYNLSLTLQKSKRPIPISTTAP"}, "MAGI2_6, Q86UL8": {"target": "MAGI2_6, Q86UL8", "sequence (Q86UL8 1141-1229)": "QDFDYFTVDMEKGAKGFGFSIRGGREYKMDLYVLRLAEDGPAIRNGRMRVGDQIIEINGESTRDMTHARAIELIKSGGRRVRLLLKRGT"}, "SHANK1, Q9Y566": {"target": "T4, SHANK1, Q9Y566", "T4 sequence (Q9Y566 658-767, limits assumed, looked up)": "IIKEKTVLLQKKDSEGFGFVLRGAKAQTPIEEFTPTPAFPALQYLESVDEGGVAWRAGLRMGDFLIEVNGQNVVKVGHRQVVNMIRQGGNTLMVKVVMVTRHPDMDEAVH"}, "PARD3B_1, Q8TEW8": {"target": "T5, PARD3B_1, Q8TEW8", "T5 sequence (Q8TEW8 196-299, limits assumed, looked up)": "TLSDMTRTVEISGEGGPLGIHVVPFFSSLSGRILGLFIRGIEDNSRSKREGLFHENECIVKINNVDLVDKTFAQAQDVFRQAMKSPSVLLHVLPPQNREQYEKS"}, "MPP2, Q14168": {"target": "T6, MPP2, Q14168", "T6 sequence (Q14168 180-250, limits assumed, looked up)": "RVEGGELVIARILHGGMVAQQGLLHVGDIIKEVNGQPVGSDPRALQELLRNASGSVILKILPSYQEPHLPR"}, "ARHGEF12, Q9NZN5-2": {"target": "ARHGEF12, Q9NZN5-2", "sequence (Q9NZN5 other isoform, or with tags, fused parts or gaps)": "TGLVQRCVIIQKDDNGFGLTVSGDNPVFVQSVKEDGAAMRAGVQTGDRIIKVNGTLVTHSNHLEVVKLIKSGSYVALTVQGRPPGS"}, "MAGI1_1, Q96QZ7": {"target": "MAGI1_1, Q96QZ7", "sequence (Q96QZ7 1-106)": "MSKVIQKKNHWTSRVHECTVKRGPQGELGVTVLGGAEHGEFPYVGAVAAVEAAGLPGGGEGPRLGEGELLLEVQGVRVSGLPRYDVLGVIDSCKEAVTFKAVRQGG"}, "PDZD7_3, Q9H5P4": {"target": "T7, PDZD7_3, Q9H5P4", "T7 sequence (Q9H5P4 857-944, limits assumed, looked up)": "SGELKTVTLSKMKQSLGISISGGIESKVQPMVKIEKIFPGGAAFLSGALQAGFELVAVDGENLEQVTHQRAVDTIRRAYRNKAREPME"}, "NHERF4_2, Q86UT5": {"target": "NHERF4_2, Q86UT5", "sequence (Q86UT5 220-308)": "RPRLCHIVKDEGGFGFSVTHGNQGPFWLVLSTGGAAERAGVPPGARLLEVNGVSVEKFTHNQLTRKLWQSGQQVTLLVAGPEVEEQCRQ"}, "SNTG2, Q9NY99": {"target": "T8, SNTG2, Q9NY99", "T8 sequence (Q9NY99 68-166, limits assumed, looked up)": "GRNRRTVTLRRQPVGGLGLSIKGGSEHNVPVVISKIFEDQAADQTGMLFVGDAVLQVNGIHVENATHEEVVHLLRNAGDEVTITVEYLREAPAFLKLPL"}, "FRMPD4, Q14CM0": {"target": "FRMPD4, Q14CM0", "sequence (Q14CM0 67-160)": "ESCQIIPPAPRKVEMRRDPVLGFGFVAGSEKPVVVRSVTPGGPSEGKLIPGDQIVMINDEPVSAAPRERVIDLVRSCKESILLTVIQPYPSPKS"}, "LNX2_2, Q8N448": {"target": "T9, LNX2_2, Q8N448", "T9 sequence (Q8N448 334-432, limits assumed, looked up)": "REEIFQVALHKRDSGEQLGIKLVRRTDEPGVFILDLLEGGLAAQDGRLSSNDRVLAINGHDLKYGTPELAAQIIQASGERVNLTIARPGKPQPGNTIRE"}, "IL16_1, Q14005": {"target": "IL16_1, Q14005", "sequence (Q14005 210-306)": "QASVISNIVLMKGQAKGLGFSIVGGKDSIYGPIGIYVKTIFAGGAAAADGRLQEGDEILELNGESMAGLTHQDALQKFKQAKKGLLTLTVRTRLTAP"}, "LNX1_1, Q8TBB1": {"target": "LNX1_1, Q8TBB1", "sequence (Q8TBB1 261-371)": "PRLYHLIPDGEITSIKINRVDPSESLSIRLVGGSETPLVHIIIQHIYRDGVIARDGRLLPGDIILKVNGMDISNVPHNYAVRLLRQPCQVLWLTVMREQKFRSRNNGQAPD"}, "NHERF2_2, Q15599": {"target": "NHERF2_2, Q15599", "sequence (Q15599 142-238)": "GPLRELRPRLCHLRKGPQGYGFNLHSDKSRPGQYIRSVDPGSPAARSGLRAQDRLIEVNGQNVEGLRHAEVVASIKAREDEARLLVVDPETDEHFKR"}, "DLG3_3, Q92796": {"target": "T10, DLG3_3, Q92796", "T10 sequence (Q92796 374-475, limits assumed, looked up)": "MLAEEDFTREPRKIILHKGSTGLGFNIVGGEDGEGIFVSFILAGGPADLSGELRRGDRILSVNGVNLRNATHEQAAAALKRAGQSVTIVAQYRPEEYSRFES"}, "Inadl_9, Q8NI35": {"target": "Inadl_9, Q8NI35", "sequence (Q8NI35 1530-1615)": "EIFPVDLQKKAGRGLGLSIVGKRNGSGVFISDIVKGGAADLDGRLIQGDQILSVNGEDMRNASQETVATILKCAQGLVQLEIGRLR"}, "CASK, O14936": {"target": "CASK, O14936", "sequence (O14936 487-570)": "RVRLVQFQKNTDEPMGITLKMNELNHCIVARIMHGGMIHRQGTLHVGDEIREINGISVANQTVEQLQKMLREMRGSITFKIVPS"}, "SCRIB_3, Q14160": {"target": "SCRIB_3, Q14160", "sequence (Q14160 999-1103)": "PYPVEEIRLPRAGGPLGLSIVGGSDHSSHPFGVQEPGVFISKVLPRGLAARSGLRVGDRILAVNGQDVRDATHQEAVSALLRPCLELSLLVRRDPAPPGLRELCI"}, "GRIP1_4, Q9Y3R0": {"target": "T11, GRIP1_4, Q9Y3R0", "T11 sequence (Q9Y3R0 467-571, limits assumed, looked up)": "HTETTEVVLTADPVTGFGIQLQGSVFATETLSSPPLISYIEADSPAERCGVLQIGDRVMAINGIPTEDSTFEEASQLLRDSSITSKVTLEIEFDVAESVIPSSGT"}, "GRASP, Q7Z6J2": {"target": "GRASP, Q7Z6J2", "sequence (Q7Z6J2 96-193)": "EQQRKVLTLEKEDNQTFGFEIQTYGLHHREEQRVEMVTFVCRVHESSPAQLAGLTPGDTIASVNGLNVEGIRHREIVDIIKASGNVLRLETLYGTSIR"}}}
{"binder": "TLPRKRMSSI", "note": "[GPRC6A, Q5T6X5]", "values": [{"measurement": "pKd", "setting": "NHERF4_1, Q86UT5-2", "result": "below the threshold"}, {"measurement": "pKd", "setting": "PTPN13_1, Q12923", "result": "below the threshold"}, {"measurement": "pKd", "setting": "DFNB31_1, Q9P202", "result": 3.59}, {"measurement": "pKd", "setting": "GRID2IP_2, A4D2P6", "result": 3.87}, {"measurement": "pKd", "setting": "SIPA1L2, Q9P2F8", "result": "below the threshold"}, {"measurement": "pKd", "setting": "LDB3, O75112", "result": "below the threshold"}, {"measurement": "pKd", "setting": "MAGI2_6, Q86UL8", "result": "below the threshold"}, {"measurement": "pKd", "setting": "SHANK1, Q9Y566", "result": "below the threshold"}, {"measurement": "pKd", "setting": "PARD3B_1, Q8TEW8", "result": "below the threshold"}, {"measurement": "pKd", "setting": "MPP2, Q14168", "result": "below the threshold"}, {"measurement": "pKd", "setting": "ARHGEF12, Q9NZN5-2", "result": 3.54}, {"measurement": "pKd", "setting": "MAGI1_1, Q96QZ7", "result": "below the threshold"}, {"measurement": "pKd", "setting": "PDZD7_3, Q9H5P4", "result": "below the threshold"}, {"measurement": "pKd", "setting": "NHERF4_2, Q86UT5", "result": "below the threshold"}, {"measurement": "pKd", "setting": "SNTG2, Q9NY99", "result": "below the threshold"}, {"measurement": "pKd", "setting": "FRMPD4, Q14CM0", "result": "below the threshold"}, {"measurement": "pKd", "setting": "LNX2_2, Q8N448", "result": "below the threshold"}, {"measurement": "pKd", "setting": "IL16_1, Q14005", "result": "below the threshold"}, {"measurement": "pKd", "setting": "LNX1_1, Q8TBB1", "result": 3.78}, {"measurement": "pKd", "setting": "NHERF2_2, Q15599", "result": "below the threshold"}, {"measurement": "pKd", "setting": "DLG3_3, Q92796", "result": "below the threshold"}, {"measurement": "pKd", "setting": "Inadl_9, Q8NI35", "result": "below the threshold"}, {"measurement": "pKd", "setting": "CASK, O14936", "result": "below the threshold"}, {"measurement": "pKd", "setting": "SCRIB_3, Q14160", "result": 3.49}, {"measurement": "pKd", "setting": "GRIP1_4, Q9Y3R0", "result": "below the threshold"}, {"measurement": "pKd", "setting": "GRASP, Q7Z6J2", "result": "below the threshold"}]}
{"binder": "QSPANIYYKV", "note": "[EFNB1, P52799]", "values": [{"measurement": "pKd", "setting": "NHERF4_1, Q86UT5-2", "result": "below the threshold"}, {"measurement": "pKd", "setting": "PTPN13_1, Q12923", "result": "below the threshold"}, {"measurement": "pKd", "setting": "DFNB31_1, Q9P202", "result": "below the threshold"}, {"measurement": "pKd", "setting": "GRID2IP_2, A4D2P6", "result": "below the threshold"}, {"measurement": "pKd", "setting": "SIPA1L2, Q9P2F8", "result": "below the threshold"}, {"measurement": "pKd", "setting": "LDB3, O75112", "result": "below the threshold"}, {"measurement": "pKd", "setting": "MAGI2_6, Q86UL8", "result": "below the threshold"}, {"measurement": "pKd", "setting": "SHANK1, Q9Y566", "result": "below the threshold"}, {"measurement": "pKd", "setting": "PARD3B_1, Q8TEW8", "result": 3.66}, {"measurement": "pKd", "setting": "MPP2, Q14168", "result": "below the threshold"}, {"measurement": "pKd", "setting": "ARHGEF12, Q9NZN5-2", "result": "below the threshold"}, {"measurement": "pKd", "setting": "MAGI1_1, Q96QZ7", "result": "below the threshold"}, {"measurement": "pKd", "setting": "PDZD7_3, Q9H5P4", "result": "below the threshold"}, {"measurement": "pKd", "setting": "NHERF4_2, Q86UT5", "result": "below the threshold"}, {"measurement": "pKd", "setting": "SNTG2, Q9NY99", "result": "below the threshold"}, {"measurement": "pKd", "setting": "FRMPD4, Q14CM0", "result": 3.8}, {"measurement": "pKd", "setting": "LNX2_2, Q8N448", "result": 4.25}, {"measurement": "pKd", "setting": "IL16_1, Q14005", "result": "below the threshold"}, {"measurement": "pKd", "setting": "LNX1_1, Q8TBB1", "result": "below the threshold"}, {"measurement": "pKd", "setting": "NHERF2_2, Q15599", "result": "below the threshold"}, {"measurement": "pKd", "setting": "DLG3_3, Q92796", "result": "below the threshold"}, {"measurement": "pKd", "setting": "Inadl_9, Q8NI35", "result": "below the threshold"}, {"measurement": "pKd", "setting": "CASK, O14936", "result": "below the threshold"}, {"measurement": "pKd", "setting": "SCRIB_3, Q14160", "result": "below the threshold"}, {"measurement": "pKd", "setting": "GRIP1_4, Q9Y3R0", "result": "below the threshold"}, {"measurement": "pKd", "setting": "GRASP, Q7Z6J2", "result": "below the threshold"}]}
